Source: paper PMC12439769, “Case of Nisin Oral Ingestion and its LC-MS/MS Detection in Human Urine Over Time: A Case Report” (Archives of clinical and medical case reports, 2025)
No end group written: not given here.

What was measured:
[1] = cited from earlier work
Description: (§1) Nisin mediates its action in part by interactions with phospholipid bilayers on cellular membranes. Prior pharmacokinetic and pharmacodynamic information indicate that nisin can be absorbed via epithelial tissues. Nisin can be absorbed through the vaginal epithelium into the circulation following intravaginal administration in rabbits. Maximum levels of nisin were detected in blood samples after 1 h of treatment. […] Further, Dreyer et al. reported the migration of nisin a ...

[2] = system: gastrointestinal epithelial and vascular endothelial cells; settings: in vitro; ref 35 (Dreyer et al.); cited from earlier work
Description: as §1

[3] = Western blotting of nisin in urine samples after oral ingestion; format: in vivo, human
Description: (§2) Nisin ZP (Handary S.A; Brussels, Belgium) was ingested by a healthy volunteer. […] Sterile urine was then collected at 4 pm (Sample 1) and 8 pm (Sample 2) on the first day of ingestion, and at 6 am (Sample 3), 8 am (Sample 4), 3:30 pm (Sample 5), and 9 pm (Sample 6) the next day. Urine samples were frozen at −80°C immediately upon collection (Table 1).
The urine samples were filtered using a 10 kDa MWCO Amicon® ultra centrifugal filter (Cat No: UFC201024, Millipore). The filtrate was used to analyze nisin, while the top retained fraction was used to check for potential nisin-binding proteins that might bind to and shift nisin to a higher molecular weight.
Western blot analyses were performed on the filtrate and top fractions from the urine samples to detect nisin and nisin binding proteins, respectively. Samples were normalized by equal protein concentration (125 μg) and then mixed with 4X Laemmli sample buffer (Cat. No. 1610747, Bio-Rad) containing β-ME (3:1). The proteins were resolved by 16% Tricine SDS-PAGE (Invitrogen, Cat No. EC6695) then transferred to Immobilon-P membranes. The blots were probed with a custom polyclonal affinity-purified rabbit nisin antibody (proprietary to Kapila lab). The antibody against nisin was produced by co-immunizing rabbits with four short nisin peptide sequences (Pacific Immunology, Ramona, CA). Blots were incubated with horseradish peroxidase-conjugated anti-rabbit antibody (SC-2004, Santa Cruz Biotechnology) and then developed with the ECL-plus detection system (Thermo Fisher Scientific).

[4] = oral ingestion, encapsulated nisin and nisin powder groups, at 24, 48 and 72 hours; mass spectrometry; cited from earlier work
Text: Like other reports of nisin detection with LC-MS/MS, this project employed similar methods to successfully detect nisin and its fragments in urine samples [44–49]. The ongoing clinical trial (ClinicalTrials.gov; NCT06097468) of nisin in oral cancer patients and studies with larger sample sizes will be helpful to furthe ...

[5] = Tolerability of oral ingestion of nisin; format: in vivo, human; settings: 20 grams in total, two doses of 10 grams/150 ml of water at noon and 6 pm; one healthy person
Description: as §2

[6] = LC-MS/MS (PRM) detection of nisin in human urine after oral ingestion; format: in vivo
Description: as §2
Six urine samples, including both standard and nisin-spiked samples, were thawed/prepared then centrifuged at 4000×g to pellet large solute materials/proteins. The supernatant from each sample was then filtered using a 10 kDa MWCO Amicon® Ultra Centrifugal Filter to further remove larger protein molecules. The filtered urine was lyophilized under stringent conditions (−50 °C and 0.1 Torr) for 48 hours to ensure complete dryness. The lyophilized cake was resuspended in 0.1% Trifluoroacetic Acid (TFA) for sample homogenization. A subsequent centrifugation step at 12000×g for 5 minutes allowed for the separation of any remaining particulate matter, with the supernatant being carefully transferred into a clean tube. The supernatant underwent desalting using C18 Stage Tips, which were prepared by equilibration in 1% TFA and 50% Acetonitrile (ACN), followed by a washing solution of 5% ACN and 0.1% TFA, and an elution in 40% ACN with 0.1% TFA. The peptides eluted were vacuum dried and then resuspended in 5% Formic Acid (FA).
Nisin peptide abundance was measured using liquid chromatography coupled to mass spectrometry (LC-MS/MS). After reconstitution in formic acid, the samples were fractionated online by C18 reversed phase chromatography using a Dionex U3000 HPLC to deliver an increasing gradient of acetonitrile. Peptides were eluted and electrosprayed directly in a Thermofisher Fusion Lumos mass spectrometer. Data were acquired using a parallel reaction monitoring strategy in which the +5 precursor ion of full-length nisin was analyzed by MS/MS [51]. The precursor and fragment ion masses for +5 charge state of nisin utilized for Parallel Reaction Monitoring are shown in Table 2. Extracted ion chromatograms were generated for each fragment ion using the Skyline software package. The area under the curve for each fragment ion was summed to calculate an estimate of nisin abundance.

[7] = rabbits, intravaginal administration

Nisin ZP: Natural bacteriocin made by Lactococcus lactis, food preservative; Nisin ZP from Handary S.A, Brussels, Belgium (ITSISLCTPGCKTGALMGCNMKTATCNCSIHVSK; also: lantibiotic nisin-Z: thioether rings and dehydro residues not placed; UniProt P29559 24-57, looked up)
Stability in the harsh conditions of the gastric environment [1]: partially stable | Time at which blood levels declined to baseline [1, 7]: 12 h | Time of maximum levels of nisin in blood samples [1, 7]: 1 h | Migration across gastrointestinal epithelial and vascular endothelial cells [2]: migration of nisin across gastrointestinal epithelial and vascular endothelial cells | Nisin detection in urine samples 2 through 6 by immunoblotting ([3]; <10 kDa filtrate, urine 8–33 h after first ingestion, anti-nisin rabbit polyclonal antibody): did not detect | Nisin detection at approximately 3.3 kDa in urine sample 1 by immunoblotting ([3]; <10 kDa filtrate, urine 4 h after first ingestion, anti-nisin rabbit polyclonal antibody, 16% Tricine SDS-PAGE): detected | High molecular weight nisin-positive band at approximately 40 kDa in urine sample 1 ([3]; >10 kDa retained fraction, urine 4 h after first ingestion, suggests a potential nisin-binding protein): nisin-positive band | Integrity of nisin passing through the porcine gastrointestinal tract [4]: remains intact | Tolerability of oral ingestion [5]: well tolerated without any adverse events | Time of maximal nisin levels detected in urine ([6]; after first oral 10 g dose, LC-MS/MS, earliest sample collected at 4 h, n = 1 subject): 4 h | Nisin detection in urine samples 1–4 by LC-MS/MS ([6]; one healthy person, oral 2 x 10 g/150 ml water at noon and 6 pm, urine 4, 8, 18, 20 h after first ingestion, 10 kDa MWCO filtrate, lyophilized, C18 desalted, PRM of +5 precursor, summed fragment AUC): detected | Time window of nisin detection in urine after the first ingestion ([6]; oral 10 g/150 ml at noon, second 10 g at 6 pm, LC-MS/MS, n = 1 subject, no urine collected before 4 h): 4 to 20 h | Nisin detection in urine samples 5–6 by LC-MS/MS ([6]; same subject and regimen, urine 27.5 and 33 h after first ingestion (21.5 and 27 h after second), PRM of +5 precursor): not | Time of nisin detection in urine after the second ingestion ([6]; second oral 10 g/150 ml dose at 6 pm, LC-MS/MS, n = 1 subject): up to 14 hours
